This is an account of results in US20100143245A1.

The assay deals with 4Ig-B7H3, the 4Ig domain isoform of the human B7-homolog 3 (human) (UniProt Q5ZPR3). The assay can be described thus: Immunoaffinity capture from LAN-1 lysate or membrane fraction on 8H9-protein G Sepharose, followed by Western blot.
UniProt Q5ZPR3, sequence (Q5ZPR3 29-534 limits assumed, form in doubt): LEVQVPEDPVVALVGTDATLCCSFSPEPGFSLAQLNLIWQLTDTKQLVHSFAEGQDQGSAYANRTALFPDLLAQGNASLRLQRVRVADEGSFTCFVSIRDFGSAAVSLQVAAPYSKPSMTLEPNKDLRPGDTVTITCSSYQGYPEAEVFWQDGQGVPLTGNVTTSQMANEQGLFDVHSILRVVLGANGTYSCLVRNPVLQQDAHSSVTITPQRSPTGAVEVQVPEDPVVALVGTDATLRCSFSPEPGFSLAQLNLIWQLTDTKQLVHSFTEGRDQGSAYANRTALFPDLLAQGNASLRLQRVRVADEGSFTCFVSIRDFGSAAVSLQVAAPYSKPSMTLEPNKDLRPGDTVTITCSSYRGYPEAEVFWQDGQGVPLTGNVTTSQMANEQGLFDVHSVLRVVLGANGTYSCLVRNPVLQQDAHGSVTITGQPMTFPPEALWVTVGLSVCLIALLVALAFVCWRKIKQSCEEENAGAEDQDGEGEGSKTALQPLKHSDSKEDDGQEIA

Substance monoclonal antibody 8H9 showed a portion of 8H9 antigen bound to the Sepharose greater than 50%.
